According to patent publication US20190249141A1:

Assays:
[1] = molecular target: CD40 on mouse splenic B cells (mouse) (UniProt P27512); assay: cell-based or functional assay
[2] = molecular target: recombinant murine CD40L (M112-L260) with N-terminal HA tag (murine); assay: loading of HA-tagged CD40L on anti-HA antibody microbeads; protein in the supernatant (A280) measured before and after incubation

UniProt P27512, sequence (P27512 20-289): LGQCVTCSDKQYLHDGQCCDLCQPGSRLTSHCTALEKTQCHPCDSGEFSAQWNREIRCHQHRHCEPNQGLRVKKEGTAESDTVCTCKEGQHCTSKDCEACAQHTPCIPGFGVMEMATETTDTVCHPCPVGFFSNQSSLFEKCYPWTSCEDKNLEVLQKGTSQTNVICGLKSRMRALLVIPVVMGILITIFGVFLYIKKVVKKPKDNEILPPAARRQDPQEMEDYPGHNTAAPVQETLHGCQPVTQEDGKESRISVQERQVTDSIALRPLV

maximum surface density of CD40L on anti-HA microbeads (molecules µm^-2) [2] | Substance | cell viability on Day 6 of B cells activated by αCD40 [1]
– | anti-CD40 antibody (clone 1C10, eBioscience) | 2 to 5%
27000 | anti-HA peptide antibody covalently attached to superparamagnetic microbeads (Pierce) | –
